Reference: US20160145657A1, “Methods and Materials for Producing 7-Carbon Chemicals via a C9 Route” (INVISTA North America S.á.r.l., priority 2014, published 2016)

Columns and labels:
[1] = carboxylate reductase activity, pimelate to pimelate semialdehyde, NADPH consumption at 340 nm; assay type: biochemical; details: purified enzyme enhanced by sfp gene product, 2 mM pimelate, pH 7.5, room temperature, 20 min; FIG. 8
Procedure: A nucleotide sequence encoding a HIS-tag was added to the nucleic acid sequences from Segniliparus rugosus and Segniliparus rotundus that encode the carboxylate reductases of SEQ ID NOs: 4 (EFV11917.1) and 6 (ADG98140.1), respectively (see FIG. 6), such that N-terminal HIS tagged carboxylate reductases could be produced. Each of the modified genes was cloned into a pET Duet expression vector along with a sfp gene encoding a HIS-tagged phosphopantetheine transferase from Bacillus subtilis, both under the T7 promoter. Each expression vector was transformed into a BL21[DE3] E. coli host and the resulting recombinant E. coli strains were cultivated at 37° C. in a 250 mL shake flask culture containing 50 mL LB media and antibiotic selection pressure, with shaking at 230 rpm. Each culture was induced overnight at 37° C. using an auto-induction media.
The pellet from each induced shake flask culture was harvested via centrifugation. Each pellet was resuspended and lysed via sonication, and the cell debris was separated from the supernatant via centrifugation. […]
Enzyme activity assays (i.e., from pimelate to pimelate semialdehyde) were performed in triplicate in a buffer composed of a final concentration of 50 mM HEPES buffer (pH=7.5), 2 mM pimelate, 10 mM MgCl2, 1 mM ATP and 1 mM NADPH. […] The consumption of NADPH was monitored by absorbance at 340 nm. […]

[2] = carboxylate reductase activity, N7-acetyl-7-aminoheptanoate to N7-acetyl-7-aminoheptanal, NADPH consumption at 340 nm; assay type: biochemical; details: purified enzyme enhanced by sfp gene product, 2 mM N7-acetyl-7-aminoheptanoate, pH 7.5, room temperature, 20 min; FIG. 10
Procedure: The activity of each of the N-terminal His-tagged carboxylate reductases of SEQ ID NOs: 3, 5, and 6 (see Examples 2 and 3, and FIG. 6) for converting N7-acetyl-7-aminoheptanoate to N7-acetyl-7-aminoheptanal was assayed in triplicate in a buffer composed of a final concentration of 50 mM HEPES buffer (pH=7.5), 2 mM N7-acetyl-7-aminoheptanoate, 10 mM MgCl2, 1 mM ATP, and 1 mM NADPH. The assays were initiated by adding purified carboxylate reductase and phosphopantetheine transferase or the empty vector control to the assay buffer containing the N7-acetyl-7-aminoheptanoate then incubated at room temperature for 20 min. The consumption of NADPH was monitored by absorbance at 340 nm.

B1: SEQ ID NO: 4: Segniliparus rugosus carboxylate reductase, Genbank Accession No. EFV11917.1 (protein)
chain: MGDGEERAKRFFQRIGELSATDPQFAAAAPDPAVVEAVSDPSLSFTRYLDTLMRGYAERPALAHRVGAGYETISYGELWARVGAIAAAWQADGLAPGDFVATVGFTSPDYVAVDLAAARSGLVSVPLQAGASLAQLVGILEETEPKVLAASASSLEGAVACALAAPSVQRLVVFDLRGPDASESAADERRGALADAEEQLARAGRAVVVETLADLAARGEALPEAPLFEPAEGEDPLALLIYTSGSTGAPKGAMYSQRLVSQLWGRTPVVPGMPNISLHYMPLSHSYGRAVLAGALSAGGTAHFTANSDLSTLFEDIALARPTFLALVPRVCEMLFQESQRGQDVAELRERVLGGRLLVAVCGSAPLSPEMRAFMEEVLGFPLLDGYGSTEALGVMRNGIIQRPPVIDYKLVDVPELGYRTTDKPYPRGELCIRSTSLISGYYKRPEITAEVFDAQGYYKTGDVMAEIAPDHLVYVDRSKNVLKLSQGEFVAVAKLEAAYGTSPYVKQIFVYGNSERSFLLAVVVPNAEVLGARDQEEAKPLIAASLQKIAKEAGLQSYEVPRDFLIETEPFTTQNGLLSEVGKLLRPKLKARYGEALEARYDEIAHGQADELRALRDGAGQRPVVETVVRAAVAISGSEGAEVGPEANFADLGGDSLSALSLANLLHDVFEVEVPVRIIIGPTASLAGIAKHIEAERAGASAPTAASVHGAGATRIRASELTLEKFLPEDLLAAAKGLPAADQVRTVLLTGANGWLGRFLALEQLERLARSGQDGGKLICLVRGKDAAAARRRIEETLGTDPALAARFAELAEGRLEVVPGDVGEPKFGLDDAAWDRLAEEVDVIVHPAALVNHVLPYHQLFGPNVVGTAEIIRLAITAKRKPVTYLSTVAVAAGVEPSSFEEDGDIRAVVPERPLGDGYANGYGNSKWAGEVLLREAHELVGLPVAVFRSDMILAHTRYTGQLNVPDQFTRLVLSLLATGIAPKSFYQQGAAGERQRAHYDGIPVDFTAEAITTLGAEPSWFDGGAGFRSFDVFNPHHDGVGLDEFVDWLIEAGHPISRIDDHKEWFARFETAVRGLPEAQRQHSLLPLLRAYSFPHPPVDGSVYPTGKFQGAVKAAQVGSDHDVPHLGKALIVKYADDLKALGLL
With B1 the “acceptance of pimelate as substrate (NADPH consumption) against the empty vector control” value [1] was “accepted pimelate as substrate”.

B2: SEQ ID NO 5: Mycobacterium abscessus subsp. bolletii (Mycobacterium massiliense) carboxylate reductase, Genbank Accession No. EIV11143.1 (protein)
chain: MTNETNPQQEQLSRRIESLRESDPQFRAAQPDPAVAEQVLRPGLHLSEAIAALMTGYAERPALGERARELVIDQDGRTTLRLLPRFDTTTYGELWSRTTSVAAAWHHDATHPVKAGDLVATLGFTSIDYTVLDLAIMILGGVAVPLQTSAPASQWTTILAEAEPNTLAVSIELIGAAMESVRATPSIKQVVVFDYTPEVDDQREAFEAASTQLAGTGIALETLDAVIARGAALPAAPLYAPSAGDDPLALLIYTSGSTGAPKGAMHSENIVRRWWIREDVMAGTENLPMIGLNFMPMSHIMGRGTLTSTLSTGGTGYFAASSDMSTLFEDMELIRPTALALVPRVCDMVFQRFQTEVDRRLASGDTASAEAVAAEVKADIRDNLFGGRVSAVMVGSAPLSEELGEFIESCFELNLTDGYGSTEAGMVFRDGIVQRPPVIDYKLVDVPELGYFSTDKPHPRGELLLKTDGMFLGYYKRPEVTASVFDADGFYMTGDIVAELAHDNIEIIDRRNNVLKLSQGEFVAVATLEAEYANSPVVHQIYVYGSSERSYLLAVVVPTPEAVAAAKGDAAALKTTIADSLQDIAKEIQLQSYEVPRDFIIEPQPFTQGNGLLTGIAKLARPNLKAHYGPRLEQMYAEIAEQQAAELRALHGVDPDKPALETVLKAAQALLGVSSAELAADAHFTDLGGDSLSALSFSDLLRDIFAVEVPVGVIVSAANDLGGVAKFVDEQRHSGGTRPTAETVHGAGHTEIRAADLTLDKFIDEATLHAAPSLPKAAGIPHTVLLTGSNGYLGHYLALEWLERLDKTDGKLIVIVRGKNAEAAYGRLEEAFDTGDTELLAHFRSLADKHLEVLAGDIGDPNLGLDADTWQRLADTVDVIVHPAALVNHVLPYNQLFGPNVVGTAEIIKLAITTKIKPVTYLSTVAVAAYVDPTTFDEESDIRLISAVRPIDDGYANGYGNAKWAGEVLLREAHDLCGLPVAVFRSDMILAHSRYTGQLNVPDQFTRLILSLIATGIAPGSFYQAQTTGERPLAHYDGLPGDFTAEAITTLGTQVPEGSEGFVTYDCVNPHADGISLDNFVDWLIEAGYPIARIDNYTEWFTRFDTAIRGLSEKQKQHSLLPLLHAFEQPSAAENHGVVPAKRFQHAVQAAGIGPVGQDGTTDIPHLSRRLIVKYAKDLEQLGLL
In the case of B2, the “acceptance of N7-acetyl-7-aminoheptanoate as substrate (NADPH consumption) against the empty vector control” value [2] is reported as “accepted N7-acetyl-7-aminoheptanoate as substrate”.
